Laboratory results as given in paper PMC4521160, “Glass is a Viable Substrate for Precision Force Microscopy of Membrane Proteins” (Scientific Reports, 2015).

What was measured:
ATPase SecA = biological target: T1, ATPase SecA (E. coli, UniProt P10408 1-901); test: atomic force microscopy (AFM) imaging; proteoliposomes of coassembled SecYEG and SecA deposited on KOH-treated glass (height histograms also on mica); tapping mode, ~30 °C, 10 mM HEPES pH 8.0, 200 mM KAc, 5 mM MgAc2; single translocons tracked for >1800 s; conditions: both partners purified
T1 construct: SecA, ATPase of the general secretory system of E. coli; SecA was added for coassembly 'at 5 μM dimer'; Zinc is kept in SecA by the purification; also called peripheral membrane protein SecA; source: purified from the supernatant of lysed cells (QAE column)
T1 sequence (P10408 whole entry): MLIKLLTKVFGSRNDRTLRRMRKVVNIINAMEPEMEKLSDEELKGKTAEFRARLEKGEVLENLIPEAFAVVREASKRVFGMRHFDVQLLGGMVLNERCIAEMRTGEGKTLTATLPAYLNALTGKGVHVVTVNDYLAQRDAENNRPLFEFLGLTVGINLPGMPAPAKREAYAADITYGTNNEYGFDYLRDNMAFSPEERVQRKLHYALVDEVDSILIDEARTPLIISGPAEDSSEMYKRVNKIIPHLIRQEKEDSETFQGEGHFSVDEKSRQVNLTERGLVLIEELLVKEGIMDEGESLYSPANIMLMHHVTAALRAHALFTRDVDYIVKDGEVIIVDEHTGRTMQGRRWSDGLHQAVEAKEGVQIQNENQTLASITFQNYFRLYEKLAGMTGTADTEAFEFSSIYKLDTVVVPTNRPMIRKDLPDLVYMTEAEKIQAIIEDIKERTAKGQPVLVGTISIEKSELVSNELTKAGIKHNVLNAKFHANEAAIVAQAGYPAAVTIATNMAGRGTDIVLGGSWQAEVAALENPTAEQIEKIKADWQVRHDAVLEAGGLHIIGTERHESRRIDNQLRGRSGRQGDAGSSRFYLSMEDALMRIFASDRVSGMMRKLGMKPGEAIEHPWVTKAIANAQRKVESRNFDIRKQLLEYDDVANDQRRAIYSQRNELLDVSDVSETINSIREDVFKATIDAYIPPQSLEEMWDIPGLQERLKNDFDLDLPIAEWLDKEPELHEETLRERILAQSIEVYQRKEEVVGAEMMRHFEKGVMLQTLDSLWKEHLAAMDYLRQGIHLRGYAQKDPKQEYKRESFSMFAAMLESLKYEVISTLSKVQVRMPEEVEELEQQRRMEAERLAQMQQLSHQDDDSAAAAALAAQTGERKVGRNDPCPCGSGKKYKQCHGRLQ

[1] = biological target: T2, bacteriorhodopsin from Halobacterium salinarum (Halobacterium salinarum), P02945; test: atomic force microscopy (AFM) imaging; purple membrane on KOH-treated glass (20 mM Tris pH ~8.5, 200 mM KCl, 20 mM MgCl2) and on mica (10 mM Tris pH ~7.6, 150 mM KCl); tapping mode, ~30 °C; correlation averaging; conditions: remark: other sources report otherwise
T2 chain: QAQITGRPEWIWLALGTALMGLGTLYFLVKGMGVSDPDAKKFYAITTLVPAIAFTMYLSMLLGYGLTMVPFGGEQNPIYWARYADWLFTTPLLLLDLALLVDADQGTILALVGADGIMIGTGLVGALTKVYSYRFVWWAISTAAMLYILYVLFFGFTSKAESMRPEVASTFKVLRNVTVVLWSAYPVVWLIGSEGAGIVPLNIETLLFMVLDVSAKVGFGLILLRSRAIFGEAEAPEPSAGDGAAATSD

B1: SecYEG translocon from Escherichia coli (complex, E. coli)
chain 1: MAKQPGLDFQSAKGGLGELKRRLLFVIGALIVFRIGSFIPIPGIDAAVLAKLLEQQRGTIIEMFNMFSGGALSRASIFALGIMPYISASIIIQLLTVVHPTLAEIKKEGESGRRKISQYTRYGTLVLAIFQSIGIATGLPNMPGMQGLVINPGFAFYFTAVVSLVTGTMFLMWLGEQITERGIGNGISIIIFAGIVAGLPPAIAHTIEQARQGDLHFLVLLLVAVLVFAVTFFVVFVERGQRRIVVNYAKRQQGRRVYAAQSTHLPLKVNMAGVIPAIFASSIILFPATIASWFGGGTGWNWLTTISLYLQPGQPLYVLLYASAIIFFSFFYTALVFNPRETADNLKKSGAFVPGIRPGEQTAKYIDKVMTRLTLVGALYITFISLIPEFMRDAMKVPFYFGGTSLLIVVVVIMDFMAQVQTLMMSSQYESALKKANLKGYGR
chain 2: MSANTEAQGSGRGLEAMKWVVVVALLLVAIVGNYLYRDIMLPLRALAVVILIAAAGGVALLTTKGKATVAFAREARTEVRKVIWPTRQETLHTTLIVAAVTAVMSLILWGLDGILVRLVSFITGLRF
chain 3: MYEALLVVFLIVAIGLVGLIMLQQGKGADMGASFGAGASATLFGSSGSGNFMTRMTALLATLFFIISLVLGNINSNKTNKGSEWENLSAPAKTEQTQPAAPAKPTSDIPN
notes: SecY of the E. coli translocon SecYEG, with C329S and C385S; SecE of the E. coli translocon SecYEG; SecG of the E. coli translocon SecYEG; In the assay the complex stood in a lipid bilayer supported by glass (or mica); also called bacterial translocon; copies: + +
binding result (ATPase SecA): binds

B2: bacteriorhodopsin from Halobacterium salinarum, P02945 14-262 (natural protein)
chain: T2 chain
modifications: here or on the partner: retinal chromophore; retinal chromophore
stoichiometry N [1]: 3
